{
  "source": "paper PMC3781045",
  "molecular_target": "T1, rZur (ZurPA, Np20) (Pseudomonas aeruginosa PAO1?) (UniProt Q9HT74)",
  "T1 sequence": "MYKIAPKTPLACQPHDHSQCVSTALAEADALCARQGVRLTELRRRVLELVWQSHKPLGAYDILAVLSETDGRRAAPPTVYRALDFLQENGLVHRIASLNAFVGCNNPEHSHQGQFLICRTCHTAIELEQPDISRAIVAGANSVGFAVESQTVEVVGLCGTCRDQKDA",
  "assay": "EMSA",
  "settings": "10 mM Tris-HCl pH 8.0, 40 mM KCl, 10 mM MgCl2, 1 mM DTT, 5% glycerol, 1 uM ZnCl2, 0.5 ug salmon sperm DNA; room temperature 30 min; gel at 4 C",
  "data": [
    {"sequence": "CGGCGAAGCCAGCAGGAACAGGGCGAAGCAGGCGGACAGCAGGGCAAAGGGACGCAGGGTCACGGCGGCACTCACATGAAAGGTGGTTAGCGGGTAATATAATAACGTCTCTACCCTCGAGCGTCGCAGCCCATGTACAAGATTGCGCCCAAGACCCCGCTGGCCTGCCAGCCCCATGACCACAGCCAGTGCGTCAGCA (double strand) [znuA promoter fragment]", "values": [
      {"measurement": "binding", "result": "binds"}
    ]}
  ]
}
